“And” between values parts separate entries of the source, which are not always exact repeats. Identical values can stand only once.
What was measured:
[1] = molecular target: Klebsiella pneumonia DHOase (Klebsiella pneumonia); assay: cross-linking; glutaraldehyde 1%, individual DHOase 3 uM, 4 C, 20 min; Coomassie Blue-stained SDS-PAGE
[2] = molecular target: DHOase domain of human CAD (human); assay: as above
[3] = molecular target: the molecule itself; assay: as above
[4] = molecular target: the molecule itself; assay: cross-linking; glutaraldehyde 0.5%, DHOase 3 uM, 4 C, 20 min; Coomassie Blue-stained SDS-PAGE
[5] = molecular target: the molecule itself; assay: SEC; Superdex 200 prep grade, protein 10 mg/mL in 20 mM MES, 100 mM NaCl, pH 6.0, 0.5 mL/min; calibrated with proteins of known molecular weight
[6] = molecular target: the molecule itself; assay: crystal structure; complex form I with malate, 16% PEG 4000, 100 mM imidazole-malate, pH 7.0, room temperature; PDB 6L0A, 1.79 A, space group P2(1), four molecules per asymmetric unit

Klebsiella pneumonia DHOase (enzyme)
stoichiometry N [1]: 2

DHOase domain of human CAD (domain or fragment)
stoichiometry N [2]: 2

B1: Salmonella enterica serovar Typhimurium LT2 DHOase (enzyme, UniProt P06204 1-348, looked up)
chain: MTAPSQVLKIRRPDDWHVHLRDGDMLKTVVPYTSEIYGRAIVMPNLASPITTVDAAIAYRQRILDAVPAGHDFTPLMTCYLTDSLDADELERGFHEGVFTAAKLYPANATTNSSHGVTSVDAIMPVLERMEKLGIPLLVHGEVTHADVDIFDREARFIDTVMEPLRQRLTALKVVFEHITTKDAAQYVRDGNDYLAATITPQHLMFNRNDMLVGGIRPHLYCLPILKRNIHQQALRELVASGFTRAFLGTDSAPHSRHRKETSCGCAGCFNAPSALGSYAAVFEEMNALAHFEAFCSLNGPQFYGLPMNTGWVELVRDEQQIPGNIALADDSLVPFLAGETVRWSVKK
notes: Dihydroorotase of Salmonella enterica serovar Typhimurium LT2; also called StDHOase
stoichiometry N [3]: 2

B2: Saccharomyces cerevisiae dihydroorotase (enzyme)
chain: MVQEIDLGLTCDMHVHVREGAMCELVTPKIRDGGVSIAYIMPNLQPPITTLDRVIEYKKTLQKLAPKTTFLMSFYLSKDLTPDLIHEAAQQHAIRGVKCYPAGVTTNSAAGVDPNDFSAFYPIFKAMQEENLVLNLHGEKPSVHDGDKEPIHVLNAEEAFLPALKKLHNDFPNLKIILEHCTSESAIKTIEDINKNVKKATDVKVAATLTAHHLFLTIDDWAGNPVNFCKPVAKLPNDKKALVKAAVSGKPYFFFGSDSAPHPVQNKANYEGVCAGVYSQSFAIPYIAQVFEEQNALENLKGFVSDFGISFYEVKDSEVASSDKAILFKKEQVIPQVISDGKDISIIPFKAGDKLSWSVRWEPR
modifications: carbamylated lysine (Kcx) at 98
notes: Dihydroorotase of Saccharomyces cerevisiae, the monofunctional DHOase encoded by an independent gene; monomer about 40 kDa; Two Zn ions and malate in the active site of each subunit in the crystals; also called ScDHOase; DHOase
stoichiometry N [4]: 2 | stoichiometry N [5]: ~2 and ~4.1 | stoichiometry N [6]: 4

Source: paper PMC8659124, “Structural Analysis of Saccharomyces cerevisiae Dihydroorotase Reveals Molecular Insights into the Tetramerization Mechanism” (Molecules, 2021)
